# Data: patent US10323078B2, “Isolated peptides and fragments thereof from fibrinogen for use as drugs, particularly in skin inflammatory diseases” (Universite Paris Descartes, priority 2015, dated 2019)
# B1: MKRMVSWSFHKLKTMKHLLLLLLCVFLVKSQGVNDNEEGFFSARGHRPLDKKREEAPSLRPAPPPISGGGYRARPAKAAATQKKVERKAPDAGGCLHADPDLGVLC (protein)
# chain: MKRMVSWSFHKLKTMKHLLLLLLCVFLVKSQGVNDNEEGFFSARGHRPLDKKREEAPSLRPAPPPISGGGRARPAKAAATQKKVERKAPDAGGCLHADPDLGVLCMKRMVSWSFHKLKTMKHLLLLLLCVFLVKSQGVNDNEEGFFSARGHRPLDKKREEAPSLRPAPPPISGGGYRARPAKAAATQKKVERKAPDAGGCLHADPDLGVLC
# modifications: GST fusion; fragment Fg1
# notes: fragment of Bß chain of human fibrinogen having 106 amino acids; recombinant GST-fused peptide expressed in E. coli
# Assays:
# Format in all cases: cell-based, human
# HDF cells [1] = assay: O2°− production by P. acnes-stimulated HDF; conditions: 0.87 to 7 μM
# Method: (§1) For experiences of stimulation with P. acnes, cells were incubated with the P. acnes suspension adjusted at the appropriate concentration, pre-treated for 1 h at 37° C. or not with fibrinogen recombinant peptides Fg1 and Fg2 at the concentrations 0.87, 1.75, 3.5 or 7 μM for the desired period of time at 37° C. in 5% CO2.
# (§2) All cells lines (5·10^4 to 10^5 cells/well) were seeded in 96-well plates (Corning Costar, Brumath, France) and treated as previously described. After stimulation, cells were washed three times in PBS and incubated with 100 μl per wells of 5 μM DHE (for determination of O2^●−) or 5 μM H2-DCFDA (for determination of H2O2) for 30 min as described previously and fluorescence intensity was recorded every hour over a period of 5 h. Fluorescence excitation/emission maxima were for DHE: 480/610 nm and for H2-DCFDA: 507/525 nm. At the end of the experiment, the number of adherent cells was evaluated by the crystal violet assay as described below. O2^●−, and H2O2 were assayed by spectrofluorimetry on a Fusion spectrofluorimeter (PackardBell, Paris, France). Levels of ROS were calculated in each sample as follows: reactive oxygen species rate (arbitrary units/min/10^6 cells)=(fluorescence intensity [arbitrary units] at T5h—fluorescence intensity [arbitrary units] at To/300 minutes/number of adherent cells as measured by the crystal violet assay, and were expressed as arbitrary unit (A.U.).
# (§3) To assess the efficacy of Fg1 recombinant peptide, the production of O2^∘− and H2O2 by HaCaT cells NHDK, THP-1, MRC5 and HDF stimulated by pretreated P. acnes strains 6919, RON and PIE was measured. The amount of ROS produced was compared to that produced by the stimulated cells with untreated bacteria. Production baseline was obtained by measuring ROS on unstimulated cells. The production of IL-1ß, IL-8, IL-12 and TNF-α was also measured in all conditions cited above. The measurement of the production of ROS is performed by spectrofluorimetry in the presence of specific fluorochromes directly on the monolayer cell. Measurement of cytokine production was performed in parallel on the cell culture supernatant.
# (§4) Two sets of experiments were implemented: 1) The cells were stimulated (18 h at 37° C.) by P. acnes strains previously pretreated with Fg1 and Fg2 peptides at the final concentrations ranging from 0.87 to 7 μM for 1 h at 37° C.; and 2) The cells were pretreated first with Fg1 and Fg2 peptides at the final concentrations ranging from 0.87 to 7 μM for 24 h at 37° C. and stimulated (18 h at 37° C.) by P. acnes strains.
# HDF cells [2] = assay: H2O2 production by P. acnes-stimulated HDF; conditions: 0.87 to 7 μM
# Method: as §1, §2, §3, §4
# (§5) To assess the efficacy of the small Fg1-related peptide, the production of H2O2 by several cell lines (HaCaT, NHDK, THP-1, MRC5 and HDF) stimulated by three P. acnes strains 6919, RON and PIE was measured, in presence or not with the small peptides. The amount of H2O2 produced is compared to that produced by the stimulated cells with untreated bacteria. Production baseline is obtained by measuring H2O2 on unstimulated cells. The measurement of the production of H2O2 is performed by spectrofluorimetry in the presence of specific fluorochromes directly on the monolayer cell.
# (§6) Two sets of experiments have been implemented: • I) The cells are stimulated (18 h at 37° C.) by P. acnes strains previously pretreated with Fg1.1, Fg1.2, Fg1.3, Fg1.4, and Fg1.5 small peptides at the final concentrations ranging from 2.5 to 20 μM for 1 h at 37° C.; • II) The cells are pretreated first with the five small peptides at the final concentrations ranging from 2.5 to 20 μM for 24 h at 37° C. and stimulated (18 h at 37° C.) by P. acnes strains.
# ThP1 cells = assay: H2O2 production by P. acnes-stimulated ThP1; conditions: 0.87 to 7 μM
# Method: as §1, §2, §3, §4, §5, §6
# NHDK cells [3] = assay: IL-1β production by P. acnes-stimulated NHDK (ELISA); conditions: P. acnes 6919, set I, bacteria first pretreated, 0.87 to 7 μM
# Method: as §1
# (§7) Human IL-1ß, IL-8, IL-12, hBD-2, and TNF-α protein concentration was measured in the supernatants of stimulated cells using various ELISA Set kits (Ready-Set-Go kit from eBioscience for acne experiments, and for psoriasis experiments the Duo set IL-8 kit from R&D Systems and the BD-2 Human Development (hBD-2) from Peprotech) according to the manufacturer's instructions. We used serial dilutions of recombinant human IL-1ß, IL-8, IL-12 and TNF-α for standard curve. The optical density was determined at 450 nm at a wavelength correction of 540 nm.
# as §3, with “The measurement of the production of ROS is performed by spectrofluorimetry in the presence of specific fluorochromes directly on the monolayer cell. Measurement of cytokine production was performed in parallel on the cell culture supernatant.” left out
# NHDK cells [4] = assay: IL-12 production by P. acnes-stimulated NHDK (ELISA); conditions: P. acnes RON, set I, bacteria first pretreated, 0.87 to 7 μM
# Method: as §1, §7
# as §3, with “The measurement of the production of ROS is performed by spectrofluorimetry in the presence of specific fluorochromes directly on the monolayer cell. Measurement of cytokine production was performed in parallel on the cell culture supernatant.” left out
# [5] = system: HaCaT, NHDK, THP-1, MRC5 and HDF; assay: O2°− production by cells stimulated with P. acnes, overall statement for the five cell lines; conditions: pretreatment of P. acnes strains; five cell lines and three strains tested
# Method: as §1
# as §2, with “O2^●−, and H2O2 were assayed by spectrofluorimetry on a Fusion spectrofluorimeter (PackardBell, Paris, France).” left out, “(A.U.). […]” for “(A.U.).”
# [6] = system: keratinocytes and fibroblasts; assay: IL-8 production by cells stimulated with P. acnes, overall statement; conditions: the 3 bacterial tested strains
# Method: as §1, §7
# as §3, with “The measurement of the production of ROS is performed by spectrofluorimetry in the presence of specific fluorochromes directly on the monolayer cell. Measurement of cytokine production was performed in parallel on the cell culture supernatant.” left out
# [7] = P. acnes 6919, set I, bacteria first pretreated
# [8] = P. acnes 6919, set II, cells first pretreated
# [9] = P. acnes PIE, set I, bacteria first pretreated
# [10] = P. acnes PIE, set II, cells first pretreated
# [11] = P. acnes RON, set I, bacteria first pretreated
# [12] = P. acnes RON, set II, cells first pretreated
molecule,measurement,setting,value
B1,Inhibition of Superoxide anion (O2°−) production,HDF cells [1]; [7],pos
same,Inhibition of Superoxide anion (O2°−) production,HDF cells [1]; [8],pos
same,Inhibition of Superoxide anion (O2°−) production,HDF cells [1]; [9],pos
same,Inhibition of Superoxide anion (O2°−) production,HDF cells [1]; [10],pos
same,Inhibition of Superoxide anion (O2°−) production,HDF cells [1]; [11],pos
same,Inhibition of Superoxide anion (O2°−) production,HDF cells [1]; [12],pos
same,Inhibition of Hydrogen peroxide (H2O2) production,HDF cells [2]; [7],pos
same,Inhibition of Hydrogen peroxide (H2O2) production,HDF cells [2]; [8],pos
same,Inhibition of Hydrogen peroxide (H2O2) production,HDF cells [2]; [9],pos
same,Inhibition of Hydrogen peroxide (H2O2) production,HDF cells [2]; [10],pos
same,Inhibition of Hydrogen peroxide (H2O2) production,HDF cells [2]; [11],pos
same,Inhibition of Hydrogen peroxide (H2O2) production,HDF cells [2]; [12],pos
same,Inhibition of Hydrogen peroxide (H2O2) production,ThP1 cells; [7],pos
same,Inhibition of Hydrogen peroxide (H2O2) production,ThP1 cells; [8],pos
same,Inhibition of Hydrogen peroxide (H2O2) production,ThP1 cells; [9],pos
same,Inhibition of Hydrogen peroxide (H2O2) production,ThP1 cells; [10],pos
same,Inhibition of Hydrogen peroxide (H2O2) production,ThP1 cells; [11],pos
same,Inhibition of Hydrogen peroxide (H2O2) production,ThP1 cells; [12],pos
same,Inhibition of Interleukine 1 beta (IL-1β) production,NHDK cells [3],pos
same,Inhibition of Interleukine 12 (IL-12) production,NHDK cells [4],pos
same,Inhibition of O2°− production,[5],in a dose-dependent manner
same,Decrease of the production of IL-8,[6],dose-response effect on the decrease of the production of IL-8
